Series [1] has as its target Lactococcus lactis subsp. lactis (strain KF147) phosphoketolase, Uniprot A9QST6, SEQ ID NO: 3 (Lactococcus lactis, UniProt Q9CFH4). Briefly: Kinetics of acetyl phosphate formation from D-fructose (hydroxamate-based colorimetric assay). The note with it: D-fructose 0-500 mM, 50 mM sodium phosphate, pH 7.5, 37° C., 3 mg/ml enzyme. Format: biochemical. An excerpt:
(§1) The sequences of phosphoketolases inferred from the genomes of prokaryotic organisms were generated by oligonucleotide concatenation to fit the codon usage of E. coli (genes were commercially synthesized by GeneArt®). A stretch of 6 histidine codons was inserted after the methionine initiation codon to provide an affinity tag for purification. The genes thus synthesized were cloned in a modified pUC18 expression vector (New England Biolabs) containing a modified Multiple Cloning Sites (MCS). The genes of interest were cloned at PacI and NotI restriction sites. Competent MG1655 E. coli cells were transformed with these vectors using standard heat shock procedure. The transformed cells were grown in LB-ampicillin medium for 24 h at 30° C., 160 rpm shaking.
(§2) The pellets from 200 ml of cultured cells were thawed on ice and resuspended in 3 ml of 50 mM Tris-HCl pH 7.5 containing 300 mM NaCl, 5 mM MgCl2, 1 mM DTT and 10 mM Imidazole. 10 μl of lysonase (Merck) was added. […] Protein concentrations were quantified by direct UV 280 nm measurement on the NanoDrop 1000 spectrophotometer (Thermo Scientific). […]
(§3) The composition of enzymatic reactions was identical to that described above. Kinetic parameters were determined using a range of D-fructose concentrations (0-500 mM) and a constant concentration of sodium phosphate (50 mM). […]

Series [2] deals with T1, Bifidobacterium pseudolongum subsp. globosum phosphoketolase, Uniprot Q6R2Q6, SEQ ID NO: 1 (Bifidobacterium pseudolongum, UniProt Q6R2Q6).
T1 sequence (Q6R2Q6 1-825): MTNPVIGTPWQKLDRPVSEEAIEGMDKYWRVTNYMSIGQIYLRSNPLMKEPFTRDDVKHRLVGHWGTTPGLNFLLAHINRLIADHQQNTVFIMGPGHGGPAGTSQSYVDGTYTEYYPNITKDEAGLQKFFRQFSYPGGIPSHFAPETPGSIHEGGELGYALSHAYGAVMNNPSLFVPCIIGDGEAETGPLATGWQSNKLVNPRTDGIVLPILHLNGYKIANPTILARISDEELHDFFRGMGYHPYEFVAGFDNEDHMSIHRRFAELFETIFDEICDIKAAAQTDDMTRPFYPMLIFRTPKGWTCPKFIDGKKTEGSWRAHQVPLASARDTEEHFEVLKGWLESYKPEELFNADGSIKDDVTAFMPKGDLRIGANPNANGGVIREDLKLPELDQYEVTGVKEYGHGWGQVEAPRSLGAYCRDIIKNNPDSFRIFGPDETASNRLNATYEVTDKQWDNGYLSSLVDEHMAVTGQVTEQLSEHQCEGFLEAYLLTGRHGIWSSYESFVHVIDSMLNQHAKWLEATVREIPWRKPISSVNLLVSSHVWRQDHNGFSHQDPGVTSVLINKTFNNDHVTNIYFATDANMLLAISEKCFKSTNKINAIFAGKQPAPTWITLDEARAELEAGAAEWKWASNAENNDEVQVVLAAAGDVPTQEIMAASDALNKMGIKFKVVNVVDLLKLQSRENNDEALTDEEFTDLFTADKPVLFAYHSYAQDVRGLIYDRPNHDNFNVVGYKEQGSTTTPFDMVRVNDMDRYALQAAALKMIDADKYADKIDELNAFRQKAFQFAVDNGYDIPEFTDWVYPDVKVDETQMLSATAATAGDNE
Described as above. To be noted: D-fructose 0-500 mM, 50 mM sodium phosphate, pH 7.5, 37° C., 3 mg/ml enzyme. The series is classed as biochemical.
From the text: as §1, §2, §3

Substrate in series [3]: O=CCO
Briefly: Kinetics of acetyl phosphate formation from glycolaldehyde (hydroxamate-based colorimetric assay). Format: biochemical, Clostridium acetobutylicum (strain ATCC 824). To be noted: other: glycolaldehyde 0-100 mM, 50 mM sodium phosphate, pH 7.5, 37° C., 3 mg/ml enzyme.
From the text: as §1, §2
(§4) 0.1 ml of hydroxylamine hydrochloride (2 M, pH 6.5) was added to 0.1 ml of reaction mixture. […] The samples were further clarified by centrifugation and the absorbance of ferric acetyl-hydroxamate complex was measured at 505 nm. […]

Substrate in series [4]: O=CCO
The description is as above. The series is classed as biochemical, Bifidobacterium pseudolongum subsp. globosum. The note with it: other: glycolaldehyde 0-100 mM, 50 mM sodium phosphate, pH 7.5, 37° C., 3 mg/ml enzyme.
From the text: as §1, §2, §4

Substrate in series [5]: O=CCO
Described as above. Format: biochemical, Lactococcus lactis subsp. lactis (strain KF147). To be noted: other: glycolaldehyde 0-100 mM, 50 mM sodium phosphate, pH 7.5, 37° C., 3 mg/ml enzyme.
From the text: as §1, §2, §4

In general, kcat refers to the maximal rate divided by the concentration of active sites. `OCC1(O)OC[C@@H](O)[C@@H](O)[C@@H]1O` (stereo partly drawn) [D-fructose]: the kcat in series [1] came out at 0.11 ± 0.04 s⁻¹; in series [2] it was 0.10 ± 0.02 s⁻¹.

B1: Clostridium acetobutylicum (strain ATCC 824) phosphoketolase, Uniprot Q97JE3, SEQ ID NO: 2 (Clostridium acetobutylicum ATCC 824) (protein)
chain: MQSIIGKHKDEGKITPEYLKKIDAYWRAANFISVGQLYLLDNPLLREPLKPEHLKRKVVGHWGTIPGQNFIYAHLNRVIKKYDLDMIYVSGPGHGGQVMVSNSYLDGTYSEVYPNVSRDLNGLKKLCKQFSFPGGISSHMAPETPGSINEGGELGYSLAHSFGAVFDNPDLITACVVGDGEAETGPLATSWQANKFLNPVTDGAVLPILHLNGYKISNPTVLSRIPKDELEKFFEGNGWKPYFVEGEDPETMHKLMAETLDIVTEEILNIQKNARENNDCSRPKWPMIVLRTPKGWTGPKFVDGVPNEGSFRAHQVPLAVDRYHTENLDQLEEWLKSYKPEELFDENYRLIPELEELTPKGNKRMAANLHANGGLLLRELRTPDFRDYAVDVPTPGSTVKQDMIELGKYVRDVVKLNEDTRNFRIFGPDETMSNRLWAVFEGTKRQWLSEIKEPNDEFLSNDGRIVDSMLSEHLCEGWLEGYLLTGRHGFFASYEAFLRIVDSMITQHGKWLKVTSQLPWRKDIASLNLIATSNVWQQDHNGYTHQDPGLLGHIVDKKPEIVRAYLPADANTLLAVFDKCLHTKHKINLLVTSKHPRQQWLTMDQAVKHVEQGISIWDWASNDKGQEPDVVIASCGDTPTLEALAAVTILHEHLPELKVRFVNVVDMMKLLPENEHPHGLSDKDYNALFTTDKPVIFAFHGFAHLINQLTYHRENRNLHVHGYMEEGTITTPFDMRVQNKLDRFNLVKDVVENLPQLGNRGAHLVQLMNDKLVEHNQYIREVGEDLPEITNWQWHV
Turning to B1, in series [3], the Km result was “≈30 mM mM” and the kcat turned out to be 0.08 s⁻¹.

B2: Bifidobacterium pseudolongum subsp. globosum phosphoketolase, Uniprot Q6R2Q6, SEQ ID NO: 1 (Bifidobacterium pseudolongum subsp. globosum) (protein)
chain: MTNPVIGTPWQKLDRPVSEEAIEGMDKYWRVTNYMSIGQIYLRSNPLMKEPFTRDDVKHRLVGHWGTTPGLNFLLAHINRLIADHQQNTVFIMGPGHGGPAGTSQSYVDGTYTEYYPNITKDEAGLQKFFRQFSYPGGIPSHFAPETPGSIHEGGELGYALSHAYGAVMNNPSLFVPCIIGDGEAETGPLATGWQSNKLVNPRTDGIVLPILHLNGYKIANPTILARISDEELHDFFRGMGYHPYEFVAGFDNEDHMSIHRRFAELFETIFDEICDIKAAAQTDDMTRPFYPMLIFRTPKGWTCPKFIDGKKTEGSWRAHQVPLASARDTEEHFEVLKGWLESYKPEELFNADGSIKDDVTAFMPKGDLRIGANPNANGGVIREDLKLPELDQYEVTGVKEYGHGWGQVEAPRSLGAYCRDIIKNNPDSFRIFGPDETASNRLNATYEVTDKQWDNGYLSSLVDEHMAVTGQVTEQLSEHQCEGFLEAYLLTGRHGIWSSYESFVHVIDSMLNQHAKWLEATVREIPWRKPISSVNLLVSSHVWRQDHNGFSHQDPGVTSVLINKTFNNDHVTNIYFATDANMLLAISEKCFKSTNKINAIFAGKQPAPTWITLDEARAELEAGAAEWKWASNAENNDEVQVVLAAAGDVPTQEIMAASDALNKMGIKFKVVNVVDLLKLQSRENNDEALTDEEFTDLFTADKPVLFAYHSYAQDVRGLIYDRPNHDNFNVVGYKEQGSTTTPFDMVRVNDMDRYALQAAALKMIDADKYADKIDELNAFRQKAFQFAVDNGYDIPEFTDWVYPDVKVDETQMLSATAATAGDNE
Turning to B2, in series [4], the Km entry is listed as “≈20 mM mM” and the catalytic constant (kcat) amounted to 0.07 s⁻¹.

B3: Lactococcus lactis subsp. lactis (strain KF147) phosphoketolase, Uniprot A9QST6, SEQ ID NO: 3 (Lactococcus lactis subsp. lactis Il1403) (protein)
chain: MTEYNSEAYLKKLDKWWRAATYLGAGMIFLKENPLFSVTGTPIKAENLKANPIGHWGTVSGQTFLYAHANRLINKYNQKMFYMGGPGHGGQAMVVPSYLDGSYTEAYPEITQDLEGMSRLFKRFSFPGGIGSHMTAQTPGSLHEGGELGYVLSHATGAILDQPEQIAFAVVGDGEAETGPLMTSWHSIKFINPKNDGAILPILDLNGFKISNPTLFARTSDVDIRKFFEGLGYSPRYIENDDIHDYMAYHKLAAEVFDKAIEDIHQIQKDAREDNRYQNGEIPAWPIVIARLPKGWGGPRYNDWSGPKFDGKGMPIEHSFRAHQVPLPLSSKNMGTLPEFVKWMTSYQPETLFNADGSLKEELRDFAPKGEMRMASNPVTNGGVDYSNLVLPDWQEFANPISENNRGKLLPDTNDNMDMNVLSKYFAEIVKLNPTRFRLFGPDETMSNRFWEMFKVTNRQWMQVIKNPNDEFISPEGRIIDSQLSEHQAEGWLEGYTLTGRTGVFASYESFLRVVDSMLTQHFKWIRQAADQKWRHDYPSLNVISTSTVFQQDHNGYTHQDPGMLTHLAEKKSDFIRQYLPADGNTLLAVFDRAFQDRSKINHIVASKQPRQQWFTKEEAEKLATDGIATIDWASTAKDGEAVDLVFASAGAEPTIETLAALHLVNEVFPQAKFRYVNVVELGRLQKKKGALNQERELSDEEFEKYFGPSGTPVIFGFHGYEDLIESIFYQRGHDGLIVHGYREDGDITTTYDMRVYSELDRFHQAIDAMQVLYVNRKVNQGLAKAFIDRMERTLVKHFEVTRNEGVDIPEFTEWVWSDLKK
For B3, in series [5], the Km entry is listed as “≈25 mM mM” and the kcat worked out at 0.05 s⁻¹.
